Results as given in US20200095340A1.
Changes are numbered by the printed parent chain.

B1: anti-DLL3 trispecific protein 4B07 (protein, part only; not given: anti-CD3 fragment and anti-albumin sdAb, part only)
chain, part: EVQLVESGGGLVQPGGSLTLSCAASGSSVGFLSMAWYRQAPGKKRELVAGISADGSTVYIDSVKGRFTISRDNAKNSVYLQMNSLRAEDTAVYYCYAYRWTTRYTYWGQGTLVTVSSGGGGSGGGSGGGGSGGGSHHHHHH
B2: anti-DLL3 trispecific protein 4D09 (protein, part only; not given: CD3 binder and albumin binder, part only)
chain, part: B1 chain, part with G30K, V58D, D61L, R99E
B3: anti-DLL3 trispecific protein 3F010 (protein, part only; not given: CD3 fragment and albumin sdAb, part only)
chain, part: B1 chain, part with G26Y, G30S, F31R, Y104N
B4: anti-DLL3 trispecific protein 4B09 (protein, part only; not given: anti-CD3 fragment and anti-albumin sdAb, part only)
chain, part: B1 chain, part with G30S, V58D, D61S, R99S
B5: anti-DLL3 trispecific protein 3D011 (protein, part only; not given: CD3 binder and albumin binder, part only)
chain, part: B1 chain, part with G30S, F31R, T57R, V58D, T105K
B6: anti-DLL3 trispecific protein 3C03 (protein, part only; not given: anti-CD3 fragment and anti-albumin sdAb, part only)
chain, part: B1 chain, part with G30R, A53R, Y104G
B7: anti-DLL3 trispecific protein 4A011 (protein, part only; not given: CD3 binder and albumin binder, part only)
chain, part: B1 chain, part with S28K, G30S, V58T, T101K
B8: anti-DLL3 trispecific protein 3C04 (protein, part only; not given: anti-CD3 and anti-albumin domains, part only)
chain, part: B1 chain, part with S28H, G30S, S56P, V58D, T101D
B9: anti-DLL3 trispecific protein 4F010 (protein, part only; not given: anti-CD3 and anti-albumin domains, part only)
chain, part: B1 chain, part with G30S, A53I, V58D, D61K, T105R
B10: anti-DLL3 trispecific protein 4C01 (protein, part only; not given: anti-CD3 fragment and anti-albumin sdAb, part only)
chain, part: B1 chain, part with G30R, T101K
B11: anti-DLL3 trispecific protein 4H011 (protein, part only; not given: anti-CD3 and anti-albumin domains, part only)
chain, part: B1 chain, part with G30S, F31R, A53V, V58D, Y104L
B12: anti-DLL3 trispecific protein 1A05 (protein, part only; not given: CD3 fragment and albumin sdAb, part only)
chain, part: EVQLVESGGGLVQPGGSLTLSCVASGSPSSINAMGWYRRAPGKQRELSAGISSDGSKVYADSVKGRFTISRDNAKNSVYLQMNSLRAEDTAVYYCYYFRTVRGSSMSYWGQGTLVTVSSGGGGSGGGSGGGGSGGGSHHHHHH
B13: anti-DLL3 trispecific protein 2H011 (protein, part only; not given: anti-CD3 fragment and anti-albumin domain, part only)
chain, part: B12 chain, part with P28T, S30R, S48V, T100R, R102S, S107R
B14: anti-DLL3 trispecific protein 1A06 (protein, part only; not given: anti-CD3 fragment and anti-albumin sdAb, part only)
chain, part: B12 chain, part with P28T, S48A, K57S, R102S, M106K, S107R
B15: anti-DLL3 trispecific protein 2G03 (protein, part only; not given: CD3 binder and albumin binder, part only)
chain, part: B12 chain, part with P28T, S48V, K57L, R102S, S107R, Y108A
B16: anti-DLL3 trispecific protein 2H03 (protein, part only; not given: CD3 binder and albumin binder, part only)
chain, part: B12 chain, part with P28T, G35A, S48V, T100Q, R102S, S107R
B17: anti-DLL3 trispecific protein 2D012 (protein, part only; not given: anti-CD3 fragment and anti-albumin sdAb, part only)
chain, part: B12 chain, part with S27K, P28T, S48V, A60T, V101R, R102S, S107R
B18: anti-DLL3 trispecific protein 1C01 (protein, part only; not given: anti-CD3 and anti-albumin domains, part only)
chain, part: B12 chain, part with P28T, S48V, A60R, R102S, S107G
B19: anti-DLL3 trispecific protein 1H01 (protein, part only; not given: CD3 binder and albumin binder, part only)
chain, part: B12 chain, part with P28T, G35A, S48A, G55N, V101R, R102S, S107R
B20: anti-DLL3 trispecific protein 1E010 (protein, part only; not given: anti-CD3 fragment and anti-albumin sdAb, part only)
chain, part: B12 chain, part with P28V, S48V, A60I, R102S, S104L, S107R
B21: anti-DLL3 trispecific protein 2H02 (protein, part only; not given: anti-CD3 and anti-albumin domains, part only)
chain, part: B12 chain, part with P28T, G35A, S48A, R99H, R102S, S107R
B22: anti-DLL3 trispecific protein 1D09 (protein, part only; not given: anti-CD3 and anti-albumin domains, part only)
chain, part: B12 chain, part with P28T, G35A, S48V, A60T, V101I, R102S, S107R
B23: anti-DLL3 trispecific protein 2C02 (protein, part only; not given: CD3 binder and albumin binder, part only)
chain, part: B12 chain, part with P28T, M34V, S48V, A60V, R102Y, S107R
B24: anti-DLL3 trispecific protein 1D010 (protein, part only; not given: anti-CD3 and anti-albumin domains, part only)
chain, part: B12 chain, part with P28T, I31N, G35A, S48V, A60T, V101R, R102S, S107R
B25: anti-DLL3 trispecific protein 1F05 (protein, part only; not given: CD3 fragment and albumin sdAb, part only)
chain, part: B12 chain, part with P28T, S29R, S48V, R99H, R102S, S107R
B26: anti-DLL3 trispecific protein 1E012 (protein, part only; not given: CD3 binder and albumin binder, part only)
chain, part: B12 chain, part with P28T, I31T, S48V, A60V, R102S, S107V
B27: anti-DLL3 trispecific protein 2A04 (protein, part only; not given: anti-CD3 fragment and anti-albumin domain, part only)
chain, part: B12 chain, part with P28T, G35A, S48V, A60T, V101T, R102S, S107R
B28: anti-DLL3 trispecific protein 1B01 (protein, part only; not given: anti-CD3 fragment and anti-albumin sdAb, part only)
chain, part: B12 chain, part with P28T, S30I, S48A, Y59I, T100R, R102S, S107R
B29: anti-DLL3 trispecific protein 1A012 (protein, part only; not given: CD3 binder and albumin binder, part only)
chain, part: B12 chain, part with P28T, G35A, S48V, A60S, R102L, S107R
B30: anti-DLL3 trispecific protein 2E010 (protein, part only; not given: anti-CD3 and anti-albumin domains, part only)
chain, part: B12 chain, part with P28T, G35A, S48V, R99H, R102S, S107R
B31: anti-DLL3 trispecific protein 1D01 (protein, part only; not given: CD3 binder and albumin binder, part only)
chain, part: B12 chain, part with P28T, S30D, S48V, G55K, S107R
B32: anti-DLL3 trispecific protein 1B09 (protein, part only; not given: anti-CD3 and anti-albumin domains, part only)
chain, part: B12 chain, part with P28T, G35A, S48V, A60V, R102S, S107R
B33: anti-DLL3 trispecific protein 1C05 (protein, part only; not given: CD3 binder and albumin binder, part only)
chain, part: B12 chain, part with P28T, G35A, S48V, R102S, S105H, S107R
B34: anti-DLL3 trispecific protein 2A011 (protein, part only; not given: anti-CD3 and anti-albumin domains, part only)
chain, part: B12 chain, part with P28T, M34I, S48V, A60S, T100P, R102S, S107R
B35: anti-DLL3 trispecific protein 1B011 (protein, part only; not given: CD3 binder and albumin binder, part only)
chain, part: B12 chain, part with P28T, S30R, S48V, R102Y, S107R
B36: anti-DLL3 trispecific protein 2G08 (protein, part only; not given: anti-CD3 and anti-albumin domains, part only)
chain, part: B12 chain, part with P28T, S30Y, S48V, R102S, S104Q, S107G
B37: anti-DLL3 trispecific protein 1E09 (protein, part only; not given: CD3 fragment and albumin sdAb, part only)
chain, part: B12 chain, part with P28T, G35A, S48V, A60T, V101R, R102S, S107R
B38: anti-DLL3 trispecific protein 1D011 (protein, part only; not given: anti-CD3 and anti-albumin domains, part only)
chain, part: B12 chain, part with P28T, G35A, S48V, G55N, R102S, S104H, S107R
B39: anti-DLL3 trispecific protein 2D011 (protein, part only; not given: anti-CD3 fragment and anti-albumin sdAb, part only)
chain, part: B12 chain, part with S27T, P28T, S48V, R102W, S107R
B40: anti-DLL3 trispecific protein 1F011 (protein, part only; not given: anti-CD3 fragment and anti-albumin sdAb, part only)
chain, part: B12 chain, part with P28T, M34I, S48V, R102K, S107R
B41: anti-DLL3 trispecific protein 2B07 (protein, part only; not given: CD3 fragment and albumin sdAb, part only)
chain, part: B12 chain, part with P28T, M34F, S48V, S107R
B42: anti-DLL3 trispecific protein 2E01 (protein, part only; not given: anti-CD3 and anti-albumin domains, part only)
chain, part: EVQLVESGGGLVQPGGSLTLSCVASGSTSSINAMGWYRRAPFKQGELPAGISPDGTKAYADSAKVRFTISRDNAKNSVYLQMNSLRAEDTAVYYCYYFHTVCGTSMGYWGQGTLVTVSSGGGGSGGGSGGGGSGGGSHHHHHH

Target: biotinylated human DLL3 protein expressed as a human IgG1 fusion protein (human) (UniProt Q9NYJ7)
Sequence (Q9NYJ7 other isoform, or with tags, fused parts or gaps): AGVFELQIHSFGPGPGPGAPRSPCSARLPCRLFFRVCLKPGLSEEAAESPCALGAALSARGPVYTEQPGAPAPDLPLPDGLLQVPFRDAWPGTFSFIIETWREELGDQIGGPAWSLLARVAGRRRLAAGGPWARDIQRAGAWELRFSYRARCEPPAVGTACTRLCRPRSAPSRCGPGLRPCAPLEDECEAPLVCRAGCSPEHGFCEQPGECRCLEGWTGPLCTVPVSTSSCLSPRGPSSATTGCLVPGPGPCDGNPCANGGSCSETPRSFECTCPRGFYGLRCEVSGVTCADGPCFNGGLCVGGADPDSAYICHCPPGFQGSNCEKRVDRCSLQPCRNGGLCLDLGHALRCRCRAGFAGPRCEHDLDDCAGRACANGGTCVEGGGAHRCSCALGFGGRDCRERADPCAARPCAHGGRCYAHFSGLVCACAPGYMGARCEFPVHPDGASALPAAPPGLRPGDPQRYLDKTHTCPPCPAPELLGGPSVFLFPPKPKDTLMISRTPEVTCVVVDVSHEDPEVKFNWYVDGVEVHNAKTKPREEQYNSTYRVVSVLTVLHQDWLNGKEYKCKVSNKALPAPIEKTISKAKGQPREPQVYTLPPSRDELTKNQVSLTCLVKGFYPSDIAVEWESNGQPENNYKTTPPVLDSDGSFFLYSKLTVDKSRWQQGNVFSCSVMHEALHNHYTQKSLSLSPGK
Assay: Octet BLI; biotinylated huDLL3-IgG1 fusion on streptavidin tips; single 50 nM; conditioned medium

Kd [nM]	Binder
4.3	B1
4.7	B2
4.4	B3
5.4	B4
5.3	B5
4.9	B6
5.6	B7
4.5	B8
5.8	B9
5.1	B10
4.5	B11
4	B12
5	B13
5.6	B14
5.6	B15
5.3	B16
4.9	B17
4.3	B18
5.7	B19
5.7	B20
4.4	B21

Kd [nM]	Binder
5.2	B22
4.1	B23
5	B24
5.8	B25
5.3	B26
5.6	B27
5.2	B28
4.9	B29
4	B30
5.8	B31
5.4	B32
5.3	B33
4	B34
5.7	B35
4.1	B36
4.4	B37
4.4	B38
5.4	B39
5	B40
5.7	B41
4.1	B42
